Tests used:
Conditions in all cases: scale: mg Gammanorm/ml chromatography matrix(gel)
[1] = biological target: GAMMANORM 165 mg/ml (Octapharma no. 00 86 64), human normal immunoglobulin (human); experiment: column dynamic binding capacity at 10% breakthrough, before NaOH incubation
[2] = biological target: GAMMANORM 165 mg/ml (Octapharma no. 00 86 64), human normal immunoglobulin (human); experiment: column dynamic binding capacity at 10% breakthrough, after 1 h accumulated in 0.5 M NaOH
[3] = biological target: GAMMANORM 165 mg/ml (Octapharma no. 00 86 64), human normal immunoglobulin (human); experiment: column dynamic binding capacity at 10% breakthrough, after 3 h accumulated in 0.5 M NaOH
[4] = biological target: GAMMANORM 165 mg/ml (Octapharma no. 00 86 64), human normal immunoglobulin (human); experiment: column dynamic binding capacity at 10% breakthrough, after 5 h accumulated in 0.5 M NaOH
[5] = biological target: GAMMANORM 165 mg/ml (Octapharma no. 00 86 64), human normal immunoglobulin (human); experiment: column dynamic binding capacity at 10% breakthrough, after 10 h accumulated in 0.5 M NaOH
[6] = biological target: GAMMANORM 165 mg/ml (Octapharma no. 00 86 64), human normal immunoglobulin (human); experiment: column dynamic binding capacity at 10% breakthrough, after 15 h accumulated in 0.5 M NaOH
[7] = biological target: GAMMANORM 165 mg/ml (Octapharma no. 00 86 64), human normal immunoglobulin (human); experiment: column dynamic binding capacity at 10% breakthrough, after 20 h accumulated in 0.5 M NaOH

| Sequence | Capacity (Start Capacity 1) [1] | Capacity (Start Capacity 2) [1] | Capacity after 1 h [2] | Capacity after 3 h [3] | Capacity after 5 h [4] | Capacity after 10 h [5] | Capacity after 15 h [6] | Capacity after 20 h [7] |
| --- | --- | --- | --- | --- | --- | --- | --- | --- |
| MABSELECT SURE ligand (four domains originating from the domain B analogue Z, stabilized against high pH by protein engineering), coupled to agarose particles (designed binder) | 28.4 | 28.1 | 29.3 | 28.4 | 28.2 | 27.9 | 27 | 25.9 |
| MABSELECT ligand (recombinant Protein A consisting of five homologous domains E, D, A, B, C), coupled to agarose particles (from UniProt P38507 37-327) | 29 | 29 | 27 | 23.1 | 20.3 | 15.8 | 12.5 | 10.1 |
